From patent EP1869192B1 (MedImmune, LLC, dated 2016) come the findings set out here.

Assay [1] has as its target Human EphA2-Fc fusion protein (human EphA2 fused with the Fc portion of a human IgG1) (human) (UniProt P29317). Nature of the assay: single point ELISA: 1 ug goat anti-human Fd capture, biotinylated human EphA2-Fc 300-600 ng/well, neutravidin-HRP.
Assay [2] deals with T1, Human EphA2-Fc fusion protein (human EphA2 fused with the Fc portion of a human IgG1) (human, UniProt P29317 24-534, limits assumed).
T1 construct: also called biotinylated human EphA2-Fc; not shown: Fc portion of a human IgG1
Nature of the assay: SPR (BIAcore 3000), EphA2-Fc amine-coupled to CM5 chip (about 500 RU), IgG in solution, 25 C, KD = koff/kon. For orientation: In SPR one partner is held on a chip, and binding of the other changes the refractive index at the surface.

Assay [3] has as its target T1, Human EphA2-Fc fusion protein (human …). Nature of the assay: SPR (BIAcore 3000), EphA2-Fc amine-coupled to CM5 chip (about 500 RU), IgG in solution, 25 C, 1:1 Langmuir fit.
The target of assay [4] is Human EphA2-Fc fusion protein (human EphA2 fused with the Fc portion of a human IgG1) (human) (UniProt P29317). Nature of the assay: single point ELISA: periplasmic Fab captured on 500 ng goat anti-human Fab, biotinylated human EphA2-Fc 300 ng/well, neutravidin-HRP.
Assay [5] has the same target. The assay is described as follows: SPR (BIAcore 3000), EphA2-Fc amine-coupled to CM5 chip, IgG in solution, 25 C, 1:1 Langmuir fit.
For assay [6] the target is unchanged. Nature of the assay: SPR (BIAcore), human IgG1 format on immobilized EphA2-Fc.
The target is the same in assay [7]. The assay is described as follows: SPR (BIAcore 3000), EphA2-Fc amine-coupled to CM5 chip, IgG in solution, 25 C, KD = koff/kon.
Assay [8] shares this target. The assay is described as follows: second single point ELISA: periplasmic extract of 15 ml culture, 1 ug/well goat anti-human Fd capture, biotinylated EphA2-Fc. A general note: In an ELISA, binding on a coated surface is turned into a signal by an enzyme label.
Assay [9] has the same target. Nature of the assay: single point ELISA: periplasmic extract of 45 ml culture, 1 ug/well goat anti-human Fd capture, biotinylated EphA2-Fc.
The target is the same in assay [10]. The assay is described as follows: single point ELISA: periplasmic Fab captured on 1 ug goat anti-human Fd, biotinylated human EphA2-Fc 300-600 ng/well, neutravidin-HRP.
For assay [11] the target is unchanged. Nature of the assay: SPR (BIAcore 3000), EphA2-Fc amine-coupled to CM5 chip (about 500 RU), IgG in solution, 25 C, 1:1 Langmuir fit.
Assay [12] has the same target. Nature of the assay: SPR (BIAcore 3000), EphA2-Fc amine-coupled to CM5 chip (about 500 RU), IgG in solution, 25 C, KD = koff/kon.

Usually Kd stands for the equilibrium constant for the complex coming apart. A low value points to higher affinity. As usually defined, the koff is a measure of how fast the partners let go of each other. The kon is a measure of how fast the partners come together. A high value points to faster complex formation.

Substitutions are numbered along the chain they refer to.

Human EphA2-Fc fusion protein (human EphA2 fused with the Fc portion of a human IgG1) (human), sequence (P29317 24-534 limits assumed): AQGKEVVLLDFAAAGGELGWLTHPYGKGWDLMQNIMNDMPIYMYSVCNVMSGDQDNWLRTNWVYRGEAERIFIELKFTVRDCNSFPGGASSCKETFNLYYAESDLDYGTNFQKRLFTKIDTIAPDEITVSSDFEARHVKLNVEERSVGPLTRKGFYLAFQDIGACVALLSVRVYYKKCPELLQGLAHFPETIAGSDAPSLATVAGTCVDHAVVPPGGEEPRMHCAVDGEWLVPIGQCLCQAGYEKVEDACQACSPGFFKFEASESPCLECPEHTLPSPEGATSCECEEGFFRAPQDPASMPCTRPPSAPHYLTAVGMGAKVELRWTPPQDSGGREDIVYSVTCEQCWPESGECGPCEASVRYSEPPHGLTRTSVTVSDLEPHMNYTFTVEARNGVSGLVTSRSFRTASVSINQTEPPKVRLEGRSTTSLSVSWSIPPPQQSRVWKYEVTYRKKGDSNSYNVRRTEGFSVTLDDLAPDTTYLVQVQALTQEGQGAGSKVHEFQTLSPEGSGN
T1 sequence (P29317 24-534 limits assumed): as above

irrelevant antibody (Example 2) gave an OD450 (background signal) in assay [1] of 0.3 OD450.

B1: mAb EA2 (murine anti-human EphA2 monoclonal antibody) (antibody, V domains shown)
VH: DVKLVESGGGLVKPGGSLKLSCAASGFTFSSYTMSWVRQTPEKRLEWVATISSGGTYTYYPDSVKGRFTISRDNAKNTLYLQMSSLKSEDTAMYYCTREAIFTYWGQGTLVTVSA
VL: DIKMTQSPSSMYASLGERVTITCKASQDINNYLSWFQQKPGKSPKTLIYRANRVDGVPSRFSGSGSGQDYSLTISSLEYEDMGIYYCLKYDEFPYTFGGGTKLEIK
B1 showed a dissociation constant Kd in [2] of 5.94 nM. In [3], this molecule yielded a koff of 0.00307 s⁻¹ and a kon of 517000 M⁻¹ s⁻¹.

B2: Fab clone VH-2G6/VL-12C8 (Fab, from another filing, V domains shown)
VH: EVQLVESGGGVVRPGGSLRLSCAASGFTVSDYSMNWVRQAPGKGLEWIGFIRNKANDYTTEYSASVKGRFTISRDDSKNTLYLQMNSLKTEDTAVYYCTTYPRYHAMDSWGQGTMVTVSS
VL: AIQLTQSPSSLSASVGDRVTITCRASQSISNNLHWYLQKPGQSPQLLIYYVFQSISGVPSRFSGSGSGTDFTLTISSLQPEDFATYYCQQSNSWPLTFGGGTKLEIK
In assay [4], B2 came in with an OD450 of 2.8 OD450.

B3: VH-2G6/VL-12C8 as full length human IgG1 (antibody, from another filing, V domains shown)
VH: B2 VH
VL: B2 VL
In [5], B3 displayed a koff of 0.00019 s⁻¹ and a kon of 64000 M⁻¹ s⁻¹. In addition, in [6], the fold decrease of avidity against parental mAb B233 turned out to be 10 fold. The molecule also registered a Kd in assay [7] of 3 nM.

B4: VH-4H5/VL-4H5 as human IgG1 (antibody, from another filing, V domains shown)
VH: QVQLLESGGGLVQPGGSLRLSCAASGFTFSSYTMSWVRQAPGQALEWMGTISSGGTYTYYPDSVKGRFTISRDNAKNSLYLQMNSLRAEDTAVYYCAREAIFTYWGRGTLVTVSS
VL: DIQLTQSPSSLSASVGDRVTITCKASQDINNYLSWYQQKPGQAPRLLIYRANRLVDGVPDRFSGSGYGTDFTLTINNIESEDAAYYFCLKYDVFPYTFGQGTKVEIK
Turning to B4, the fold increase of avidity against parental mAb EA2 in assay [6] came out at 90 fold.

B5: Fab clone 4H5 (VH-4H5/VL-4H5) (Fab, from another filing, V domains shown)
VH: B4 VH
VL: B4 VL
For the molecule B5, the [specific OD450/background OD450] ratio in assay [8] was determined as 30. Further, in [9], the [specific OD450/background OD450] ratio was 23. In assay [10], this molecule registered an OD450 of 3 OD450 and a fold signal above background of the irrelevant antibody of 10 fold.

B6: VH-4H5/VL-"corrected" 4H5 as human IgG1 (antibody, from another filing, V domains shown)
VH: B4 VH
VL: B4 VL with V93E
For the molecule B6, in [6], the fold increase of avidity against parental mAb EA2 turned out to be 4 fold. In assay [11], this molecule gave a koff of 0.00105 s⁻¹ and a kon of 750000 M⁻¹ s⁻¹. In [12], this molecule registered a Kd of 1.4 nM.

B7: Fab "corrected" clone 4H5 (VH-4H5/VL-"corrected" 4H5) (Fab, from another filing, V domains shown)
VH: B4 VH
VL: B4 VL with V93E
As for B7, in assay [9], the [specific OD450/background OD450] ratio turned out to be 11.

B8: Fab clone VH-6H11/VL-8G7 (Fab, from another filing, V domains shown)
VH: EVQLVESGGGLVQPGGSLRLSCAASGFTFSDYSMNWVRQAPGKGLEWVAFIRNKANDYTTEYSASVKGRFTISRDNSKNTLYLQMNSLRAEDTAMYYCARYPRYHAMDSWGQGTLVTVSS
VL: EIVLTQSPATLSVSPGERATLSCRASQSISNNLHWYQQKPGKAPKSLIYYVFQSISGVPSRFSGSGSGTDFTLTINSLEAEDAATYYCQQSNSWPLTFGGGTKVDIK
In assay [4], B8 came in with an OD450 of 2.5 OD450.

B9: VH-6H11/VL-8G7 as full length human IgG1 (antibody, from another filing, V domains shown)
VH: B8 VH
VL: B8 VL
Regarding B9, in assay [5], the koff worked out at 0.00018 s⁻¹ and the kon stood at 96000 M⁻¹ s⁻¹. In assay [6], the fold decrease of avidity against parental mAb B233 turned out to be 6 fold. This molecule also yielded a Kd in assay [7] of 1.9 nM.
